According to patent WO2022250107A1 (dated 2022):

Legend:
Assay in all cases: cell-based or functional assay
[1] = target: S protein of SARS-CoV-2 delta strain JPN/TKYTK1734/2021 (on infectious virus) (SARS-CoV-2, UniProt P0DTC2 14-1273)
[2] = target: S protein of SARS-CoV-2 alpha strain 2 (Accession ID EPI_ISL_804007; on infectious virus) (SARS-CoV-2, UniProt P0DTC2 14-1273)
[3] = target: S protein of SARS-CoV-2 alpha strain 1 (JPN/QK002/2020, Accession ID EPI_ISL_768526; on infectious virus) (SARS-CoV-2, UniProt P0DTC2 14-1273)

Measured: 中和活性 IC50 (inhibition of infection of VeroE6/TMPRSS2 cells)

B1: EV053273 (antibody, V domains shown)
VH: QVQLVQSGAEVKEPGTSVKVSCKASGYIFTGYYIHWVRQAPGQGLEWMGWINPNSGGRNYTQKFQGRVTMTRDKSISTVYMELSGLRSDDTAIYYCARDNSWSTVQFCLDYWGQGTLVTVSS
VL: QSALTQPPSASGSPGQSVTISCTGTSSDVGSYNYVSWYQQYPGKAPKLMIYEVSKRPSGVPDRFSGSKSGNTASLTVSGLQAEDEADYYCSSYGGSNNLVFGGGTKLTVLG
≤ 10 ng/mL: [1] | [2] | [3]
